Data: patent publication US20060258842A1 (IQ THERAPEUTICS, published 2006)

B1: human monoclonal antibody IQNPA-1 (antibody, V domains shown)
VH: QVQLVQSGAEVKKPGASVKVSCKASGYTFTSNAIQWVRQAPGQRLEWVGWINGGDGNTKYSQKFQGRVTISRDISASTAYMELSSLRSEDTAVYYCARHRLQRGGFDPWGQGTLVTVSS
VL: EIVLTQSPGTLSLSPGERATLSCRASQSVSYSSLAWYQQKPGQAPSLLIYGASSRATGIPDRFSGSGSGPDFTLTISRLEPEDFAVYYCQHYGNSPYTFGQGTKLEIKR
B2: human monoclonal antibody IQNPA-2 (antibody, V domains shown)
VH: QVQLVQSGAEVKKPGASVKVSCKASGYTFTSNAIQWVRQAPGQRLEWVGWINGGDGNTKYSQKFQGRVTISRDISASTAYMELSSLRSEDTAVYYCARHRLQRGGFDPWGQGTLVTVSS
VL: EIVLTQSPGTLSLSPGERATLSCRASQSVSYSSLAWYQQKPGQAPSLLIYGASSRATGIPDRFSGSGSGPDFTLTISRLEPEDFAVYYCQHYGNSPYTFGQGTKLEIKR

How the values were obtained:
[1] = molecular target: Bacillus anthracis Protective Antigen (Bacillus anthracis, UniProt P13423 30-764); assay: SPR (BIAcore 3000), PA amine-coupled to CM5 chip, antibody as analyte
Bacillus anthracis Protective Antigen, sequence (P13423 30-764 limits assumed): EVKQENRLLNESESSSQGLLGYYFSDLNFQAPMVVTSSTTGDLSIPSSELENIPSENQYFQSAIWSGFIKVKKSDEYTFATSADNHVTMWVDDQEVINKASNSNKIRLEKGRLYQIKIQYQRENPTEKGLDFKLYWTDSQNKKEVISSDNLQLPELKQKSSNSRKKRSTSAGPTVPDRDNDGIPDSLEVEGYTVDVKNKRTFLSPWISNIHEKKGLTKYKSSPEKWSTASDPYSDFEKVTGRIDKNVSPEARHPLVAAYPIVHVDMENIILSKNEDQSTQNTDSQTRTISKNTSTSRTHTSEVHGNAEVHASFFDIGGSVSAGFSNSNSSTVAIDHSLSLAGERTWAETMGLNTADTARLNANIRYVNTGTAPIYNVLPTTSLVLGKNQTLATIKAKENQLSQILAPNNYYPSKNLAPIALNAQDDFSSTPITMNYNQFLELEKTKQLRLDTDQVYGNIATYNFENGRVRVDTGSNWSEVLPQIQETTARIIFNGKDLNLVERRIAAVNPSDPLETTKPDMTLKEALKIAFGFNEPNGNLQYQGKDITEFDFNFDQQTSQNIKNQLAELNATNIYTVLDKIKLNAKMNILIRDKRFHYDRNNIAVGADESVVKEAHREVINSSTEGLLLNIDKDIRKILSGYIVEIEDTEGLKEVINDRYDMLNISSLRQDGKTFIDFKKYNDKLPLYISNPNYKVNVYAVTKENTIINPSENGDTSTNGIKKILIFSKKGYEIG

[2] = molecular target: T1, GST fusion of protective antigen domain 1 (Bacillus anthracis, UniProt P13423 30-287); assay: ELISA, plate coated with GST-PA domain protein, goat anti-human IgG HRP
T1 construct: domain: 1
T1 sequence (P13423 30-287 limits assumed): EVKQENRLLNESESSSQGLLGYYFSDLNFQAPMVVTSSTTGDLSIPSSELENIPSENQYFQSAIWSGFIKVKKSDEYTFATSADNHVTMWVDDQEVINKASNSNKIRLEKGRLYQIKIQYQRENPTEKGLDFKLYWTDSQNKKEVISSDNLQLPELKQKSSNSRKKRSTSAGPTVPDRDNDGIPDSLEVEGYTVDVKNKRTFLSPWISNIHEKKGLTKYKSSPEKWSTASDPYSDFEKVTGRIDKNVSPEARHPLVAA

[3] = molecular target: T2, GST fusion of protective antigen domains 1 to 2 (Bacillus anthracis, UniProt P13423 30-516); assay: as above
T2 construct: domain: 1 to 2
T2 sequence (P13423 30-516 limits assumed): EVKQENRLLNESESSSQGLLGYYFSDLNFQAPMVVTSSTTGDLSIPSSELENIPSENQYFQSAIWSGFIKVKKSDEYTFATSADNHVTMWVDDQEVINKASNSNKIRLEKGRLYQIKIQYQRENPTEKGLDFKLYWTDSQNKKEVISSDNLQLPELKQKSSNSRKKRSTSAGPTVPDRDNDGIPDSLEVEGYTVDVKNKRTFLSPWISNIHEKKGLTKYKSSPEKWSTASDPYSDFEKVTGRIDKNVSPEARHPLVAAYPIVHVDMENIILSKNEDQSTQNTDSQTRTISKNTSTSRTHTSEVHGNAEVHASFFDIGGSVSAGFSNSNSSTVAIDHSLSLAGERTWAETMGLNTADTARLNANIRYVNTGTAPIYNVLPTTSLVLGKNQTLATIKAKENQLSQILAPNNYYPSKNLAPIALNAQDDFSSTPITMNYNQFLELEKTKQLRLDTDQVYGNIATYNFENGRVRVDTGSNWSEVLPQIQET

[4] = molecular target: T3, GST fusion of protective antigen domains 1 to 3 (Bacillus anthracis, UniProt P13423 30-624); assay: as above
T3 construct: domain: 1 to 3
T3 sequence (P13423 30-624 limits assumed): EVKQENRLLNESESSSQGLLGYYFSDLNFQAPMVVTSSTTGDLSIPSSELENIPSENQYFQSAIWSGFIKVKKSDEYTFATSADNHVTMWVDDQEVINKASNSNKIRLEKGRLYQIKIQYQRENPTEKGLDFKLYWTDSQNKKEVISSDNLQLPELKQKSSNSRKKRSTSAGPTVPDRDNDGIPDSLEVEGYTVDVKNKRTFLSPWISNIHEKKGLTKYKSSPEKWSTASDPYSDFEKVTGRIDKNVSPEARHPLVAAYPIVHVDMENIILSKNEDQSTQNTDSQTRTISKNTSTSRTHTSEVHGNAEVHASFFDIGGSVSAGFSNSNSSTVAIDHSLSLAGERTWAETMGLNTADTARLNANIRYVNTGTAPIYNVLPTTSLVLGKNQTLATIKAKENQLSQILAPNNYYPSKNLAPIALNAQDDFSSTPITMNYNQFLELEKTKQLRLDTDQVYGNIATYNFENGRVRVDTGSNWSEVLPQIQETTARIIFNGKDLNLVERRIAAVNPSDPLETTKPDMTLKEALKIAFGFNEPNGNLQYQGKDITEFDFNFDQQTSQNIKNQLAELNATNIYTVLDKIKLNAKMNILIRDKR

[5] = molecular target: T4, GST fusion of protective antigen domains 1 to 4 (Bacillus anthracis, UniProt P13423 30-764); assay: as above
T4 construct: domain: 1 to 4
T4 sequence (P13423 30-764 limits assumed): as the sequence (P13423 30-764 limits assumed) above

[6] = molecular target: T5, GST fusion of protective antigen domains 3 to 4 (Bacillus anthracis, UniProt P13423 517-764); assay: as above
T5 construct: domain: 3 to 4
T5 sequence (P13423 517-764 limits assumed): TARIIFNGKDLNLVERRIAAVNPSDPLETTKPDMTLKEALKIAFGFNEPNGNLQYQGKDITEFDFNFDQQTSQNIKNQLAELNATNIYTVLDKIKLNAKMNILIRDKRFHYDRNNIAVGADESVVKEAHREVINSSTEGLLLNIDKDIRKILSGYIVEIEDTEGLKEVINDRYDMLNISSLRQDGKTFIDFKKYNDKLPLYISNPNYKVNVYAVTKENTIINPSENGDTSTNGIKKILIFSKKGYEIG

[7] = molecular target: T6, GST fusion of protective antigen domain 4 (Bacillus anthracis, UniProt P13423 625-764); assay: as above
T6 construct: domain: 4
T6 sequence (P13423 625-764 limits assumed): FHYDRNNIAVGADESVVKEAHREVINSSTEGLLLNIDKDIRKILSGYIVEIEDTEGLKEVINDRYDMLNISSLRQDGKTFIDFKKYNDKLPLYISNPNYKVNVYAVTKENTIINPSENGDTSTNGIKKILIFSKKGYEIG

Binder	Ka [1]	Kd [1]	koff [1]	kon [1]	End point titre [2]	End point titre [3]	End point titre [4]	End point titre [5]	End point titre [6]	End point titre [7]
B1	8.31e+09 M⁻¹	0.12 nM	1.93e-05 s⁻¹	160000 M⁻¹ s⁻¹	< 100	< 100	< 100	256000	256000	256000
B2	9.86e+09 M⁻¹	0.101 nM	1.81e-05 s⁻¹	178000 M⁻¹ s⁻¹	< 100	< 100	< 100	128000	256000	128000
